This note sets out measurements from patent US20190315859A1 (EUREKA THERAPEUTICS, published 2019).

Assay [1] concerns the target T1, human CD19 expressed on the cell surface (native format) (human, UniProt P15391 20-488).
T1 construct: Endogenous on Raji, Jeko-1 and primary human B cells (CD20+CD3- gate); transduced into NIH/3T3 (3T3-CD19); also called hCD19; cell-surface human CD19
T1 sequence: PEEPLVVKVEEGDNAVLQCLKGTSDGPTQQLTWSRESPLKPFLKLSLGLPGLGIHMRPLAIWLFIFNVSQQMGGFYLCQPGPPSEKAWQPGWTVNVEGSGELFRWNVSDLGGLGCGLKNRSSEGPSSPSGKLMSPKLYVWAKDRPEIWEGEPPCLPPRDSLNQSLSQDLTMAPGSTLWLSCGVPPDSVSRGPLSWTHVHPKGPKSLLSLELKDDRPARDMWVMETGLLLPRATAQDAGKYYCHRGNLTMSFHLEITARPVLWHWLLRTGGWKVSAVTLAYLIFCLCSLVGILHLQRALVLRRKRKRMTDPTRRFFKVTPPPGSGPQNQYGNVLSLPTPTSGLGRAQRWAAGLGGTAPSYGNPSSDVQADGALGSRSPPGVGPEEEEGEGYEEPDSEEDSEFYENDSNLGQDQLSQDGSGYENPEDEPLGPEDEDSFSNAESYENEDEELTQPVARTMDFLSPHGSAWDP
Kind of assay: flow cytometry, phage clone then mouse anti-M13 antibody then R-PE anti-mouse IgG; CD19+ Raji and 3T3-CD19, CD19- Jurkat and 3T3; MFI. As for the experimental part: ELISA-positive phage clones were then tested for cell-surface human CD19 binding by flow cytometry using human CD19-positive Raji and 3T3-hCD19 cell lines, and human CD19 negative Jurkat and 3T3 cell lines (FIG. 1B). Cells were first stained with purified scFv phage clones, followed by mixing with a mouse anti-M13 monoclonal antibody, and finally a R-PE conjugated horse anti-mouse IgG (Vector Labs). Each step of staining was performed between 30-60 minutes on ice and cells were washed twice between stainings. One unique clone, 37, was identified to specifically bound human CD19⁺ Raji and 3T3-CD19 cells and not hCD19⁻ Jurkat and 3T3 (FIG. 1B).
For orientation: In flow cytometry, cells or beads pass a laser one at a time.

In assay [2] the target is T2, Recombinant human CD19 ECD-Fc fusion protein (human, UniProt P15391 20-291, biotinylated for the Octet assay (sites not given); not biotinylated when coated for ELISA).
T2 construct: domain: Fc of human IgG1 lacking the CH1 domain and including the hinge region; also called human CD19-Fc; hCD19 ECD-Fc; not shown: Fc of human IgG1 lacking the CH1 domain and including the hinge region
T2 sequence: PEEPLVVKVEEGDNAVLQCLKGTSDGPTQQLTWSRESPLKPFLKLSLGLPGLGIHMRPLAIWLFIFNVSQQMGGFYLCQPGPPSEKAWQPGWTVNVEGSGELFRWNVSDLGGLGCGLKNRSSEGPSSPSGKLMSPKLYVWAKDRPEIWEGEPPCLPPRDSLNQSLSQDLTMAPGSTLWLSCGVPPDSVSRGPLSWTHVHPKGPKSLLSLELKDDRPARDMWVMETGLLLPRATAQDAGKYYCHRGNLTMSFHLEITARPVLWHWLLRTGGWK
Briefly: ELISA, plate coated with human CD19 ECD-Fc, phage clone detected with HRP-conjugated anti-M13 antibody, OD450. As to the method: Individual phage clones from enriched phage display panning pools were incubated in the coated plates. Binding of the phage clones was detected by HRP-conjugated anti-M13 antibodies and developed using HRP substrate. The absorbance was read at 450 nm.
For orientation: An ELISA detects its analyte on a solid surface through an enzyme-linked reagent.

B1: 40 (scFv)
scFv (VL-linker-VH), shown on M13 phage: EIVMTQSPLSLSVTPGEPASISCRSSQSLLDSNGFNSLDWYLQKPGQSPQLLIHLGSDRASGVPDRFSGSGSGTDFTLKISRVEAEDVGIYYCMQSLQIPTFGQGTKVEIKRSRGGGGSGGGGSGGGGSLEMAQMQLVQSGAEVKKAGSSVKVSCETSGGTFSSSSVNWVRQAPGQGLEWMGGIIPIVGTPNYAQKFQDRVTITAVESTFTAYMELSGLRSEDTAVYYCARGGYRDYMDVWGRGTTVTVSS
notes: hit from protein screening (ELISA); also called clone 40; anti-human CD19 scFv phage clone 40
Consider B1, for which the binding result in assay [1] is listed as “no binding”.

B2: 23 (scFv)
scFv (VL-linker-VH), shown on M13 phage: QSVLTQPPSVSAAPGQKVTISCSGSSSNIGNNYVSWYRQLPGTAPKLLIYENNKRPSGIPDRFSGSKSGTSATLGITGLQTGDEADYYCGTWDSSLRAGVFGTGTKVTVLGSRGGGGSGGGGSGGGGSLEMAQVQLVESGGGLVQPGGSLRLSCAASGFTFSSYAMSWVRQAPGKGLEWVSGISASGGSTYYADSVKGRFTISRDNSKNTLYLQMNSLRAEDTAVYYCARYYLSQIDSWGQGTLVTVSS
notes: hit from protein screening (ELISA); also called clone 23; anti-human CD19 scFv phage clone 23
Turning to B2, the binding result in assay [2] is recorded as “binds”.

B3: 43 (scFv)
scFv (VL-linker-VH), shown on M13 phage: SYELTQPPSASGTPGQRVTISCSGSSSNIGSNYVYWYQQLPGTAPKLLIYRNNQRPSGVPDRFSGSKSGTSASLAISGLRSEDEADYYCAAWDDSLSGYVFGTGTKVTVLGSRGGGGSGGGGSGGGGSLEMAEVQLVESGGGLIQPGGSLRLSCAASGFTVSSNYMSWVRQAPGKGLEWVSVIYSGGSTYYADSVKGRFTISRDNSKNTLYLQMNSLRAEDTAVYYCARGGFGAEFDYWGQGTLVTVSS
notes: hit from protein screening (ELISA); also called clone 43; anti-human CD19 scFv phage clone 43
Turning to B3, the binding result in assay [2] is listed as “binds”.

B4: 54 (scFv)
scFv (VL-linker-VH), shown on M13 phage: SYVLTQPPSVSVSPGQTASITCSGDKLGDKYASWYQQKPGQSPVLVIYQDNKRPSGIPERFSGSNSGNTATLTISGTQAMDEADYYCQAWDSSTEDVFGPGTKVTVLGSRGGGGSGGGGSGGGGSLEMAEVQLVESGGGLIQPGGSLRLSCAASGFTVSSNYMSWVRQAPGKGLEWVSVIYSGGSTYYADSVKGRFTISRDNSKNTLYLQMNSLRAEDTAVYYCARGGISDDYYGSGSYDNWGQGTLVTVSS
notes: hit from protein screening (ELISA); also called clone 54; anti-human CD19 scFv phage clone 54
Consider B4, for which the binding result in assay [2] is reported as “binds”.

B5: 36 (scFv)
scFv (VL-linker-VH), shown on M13 phage: DIQLTQSPSSLSAYVGDRVTITCRASQGITNSLAWYQQKPGKAPKLLLHAASRLESGVPSRFSGSGFGTDFTLTISSLQPEDFAVYYCQHYLGTPYSFGQGTKVEIKRSRGGGGSGGGGSGGGGSLEMAEVQLVESGGGLVQPGGSLRLSCAASGFTVSSNYMSWVRQAPGKGLEWVSAISGSGGSTYYADSVKGRFTISRDNSKNTLYLQMNSLRAEDTAVYYCARMNIDYWGQGTLVTVSS
notes: hit from protein screening (ELISA); also called clone 36; anti-human CD19 scFv phage clone 36
As to B5, the binding result in assay [2] is on record as “binds”.

B6: 9 (scFv)
scFv (VL-linker-VH), shown on M13 phage: QTVVTQEPSVSAAPGQKVTISCSGSSSNIGNNYVSWYQQLPGTAPKLLIYDNNKRPSGIPDRFSGSKSGTSATLGITGLQTGDEADYYCGTWDSSLSAGVFGTGTKLTVLGSRGGGGSGGGGSGGGGSLEMAQVQLVETGGGLVQPGGSLRLSCAASGFTFSSYAMSWVRQAPGKGLEWVSAISGSGGSTYYADSVKGRFTISRDNSKNTLYLQMNSLRAEDTAVYYCARYYYSRLDYWGQGTLVTVSS
notes: hit from protein screening (ELISA); also called clone 9; anti-human CD19 scFv phage clone 9
In the case of B6, the binding result in assay [2] is given as “binds”.
